Laboratory results taken from publication PMC12022753, “Mechanism of Cas9 inhibition by AcrIIA11”.

Experiments:
SaCas9 [1] = molecular target: T1, SaCas9 (Staphylococcus aureus, UniProt J7RUA5 1-1053); test: single-molecule DNA curtains; settings: EMSA: 20 mM Tris-HCl pH 8, 5% glycerol, 100 mM KCl, 5 mM MgCl2, 1 mM DTT, 37 C, 1 mM NaCl
T1 sequence: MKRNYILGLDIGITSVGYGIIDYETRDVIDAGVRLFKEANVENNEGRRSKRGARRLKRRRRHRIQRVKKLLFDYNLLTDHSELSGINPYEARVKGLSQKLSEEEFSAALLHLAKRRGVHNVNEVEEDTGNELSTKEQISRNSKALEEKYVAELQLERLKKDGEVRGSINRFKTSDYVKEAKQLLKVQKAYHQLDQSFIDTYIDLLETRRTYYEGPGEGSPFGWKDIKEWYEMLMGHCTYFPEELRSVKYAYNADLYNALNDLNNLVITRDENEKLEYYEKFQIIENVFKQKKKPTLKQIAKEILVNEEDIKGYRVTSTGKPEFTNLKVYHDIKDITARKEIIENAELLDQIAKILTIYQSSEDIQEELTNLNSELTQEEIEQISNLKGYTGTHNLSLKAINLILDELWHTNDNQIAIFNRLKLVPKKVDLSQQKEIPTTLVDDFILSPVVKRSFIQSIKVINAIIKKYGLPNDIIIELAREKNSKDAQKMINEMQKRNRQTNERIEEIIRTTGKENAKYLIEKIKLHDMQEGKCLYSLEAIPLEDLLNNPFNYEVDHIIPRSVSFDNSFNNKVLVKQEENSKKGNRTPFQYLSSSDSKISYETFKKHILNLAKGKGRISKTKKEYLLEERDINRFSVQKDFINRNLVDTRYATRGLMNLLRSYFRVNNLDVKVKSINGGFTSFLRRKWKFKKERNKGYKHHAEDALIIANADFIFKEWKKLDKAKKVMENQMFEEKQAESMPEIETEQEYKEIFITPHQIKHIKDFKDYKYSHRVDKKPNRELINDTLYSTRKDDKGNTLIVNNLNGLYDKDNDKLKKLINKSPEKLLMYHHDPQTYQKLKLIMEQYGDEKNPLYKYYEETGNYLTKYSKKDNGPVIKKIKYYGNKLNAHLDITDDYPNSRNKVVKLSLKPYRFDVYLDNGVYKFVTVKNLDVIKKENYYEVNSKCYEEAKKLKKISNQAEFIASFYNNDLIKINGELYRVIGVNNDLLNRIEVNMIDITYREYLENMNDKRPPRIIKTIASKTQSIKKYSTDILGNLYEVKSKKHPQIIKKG

[2] = molecular target: SaCas9;AcrIIA11 (Staphylococcus aureus;) (UniProt J7RUA5); test: single-molecule DNA curtains; settings: 100 mM KCl, 5 mM MgCl2, 1 mM DTT, 37 C, sgRNA EMSA: 20 mM Tris-HCl pH 8, 5% glycerol, 1 mM NaCl
[3] = molecular target: dSaCas9 (nuclease-dead SaCas9);AcrIIA11 D10A;N580A (Staphylococcus aureus;) (UniProt J7RUA5); test: EMSA; settings: 100 mM KCl, 5 mM MgCl2, 1 mM DTT, 37 C, sgRNA EMSA: 20 mM Tris-HCl pH 8, 5% glycerol, 1 mM NaCl
AcrIIA11-6xHis = test: negative-stain electron microscopy; SaCas9 RNP mixed with ~2-fold excess of AcrIIA11-6xHis, passed over Superose 6 (peak eluted at a higher molecular weight than SaCas9 RNP); 200 mM NaCl, 25 mM HEPES pH 7.5, 5% glycerol, 2 mM DTT; low-resolution 3D reconstruction from 16 761 particles with the SaCas9 RNP crystal structure docked
SaCas9 [4] = molecular target: T1, SaCas9; test: EMSA; RNP preformed with 490 nM SaCas9; EMSA: 20 mM Tris-HCl pH 8, 5% glycerol, 100 mM KCl, 5 mM MgCl2, 1 mM DTT, 37 C; sgRNA EMSA: 20 mM Tris-HCl pH 8, 5% glycerol, 1 mM NaCl, 1 mM DTT, 37 C; curtains (dSaCas9): 40 mM Tris-HCl pH 8, 2 mM MgCl2, 100 mM NaCl, 1 mM DTT, 0.2 mg/ml BSA; settings: protein: recombinant, tags: N-terminal 3xFLAG, 6xHis-TwinStrep-SUMO removed, label: 5'-32P

48.5 kb DNA (lambda) with 29.4 kb-target sgRNA
binding signal (% of molecules at target within 90 s) (SaCas9 [1]; sgRNA EMSA: 20 mM Tris-HCl pH 8, 5% glycerol): 43
binding signal (% of molecules at target within 90 s) ([2]; EMSA: 20 mM Tris-HCl pH 8, 5% glycerol): 12

AAGAACGCCTCGCACACTCTTTTGACTTGATCGGCACGTAAGAGGTTCCAACTTTCACCATAATGAAATAAGATCACTACTTGGGTTATTTTTTGAGTTATCGAGATTTTCAGACTCTGTTATTCGGCGGTT (double strand) [SMART PCR DNA with noncomplementary sgRNA]
binding signal ([3]; 2 uM AcrIIA11, noncomplementary, EMSA: 20 mM Tris-HCl pH 8, 5% glycerol): 32 % DNA bound

TTTGGGTATTGGGTATTGGGTTTTGGGTTTGGGTTATTTT (double strand) [5x strong PAM DNA (KD201/KD202), nontarget]
binding signal ([3]; 25 nM dSaCas9 and sgRNA, 5 uM AcrIIA11, EMSA: 20 mM Tris-HCl pH 8, 5% glycerol): 90 % DNA bound

lambda DNA with scrambled sgRNA (no target)
binding signal (s (half-dissociation lifetime)) (SaCas9 [1]; scrambled sgRNA): 61
binding signal ([2]; scrambled sgRNA, AcrIIA11, EMSA: 20 mM Tris-HCl pH 8, 5% glycerol): 98 s (lifetime)

B1: SaCas9 RNP from TS-SUMO-SaCas9-sgRNA (enzyme)
chain: T1 sequence
stoichiometry N (AcrIIA11-6xHis): 1

B2: SaCas9 SMART target sgRNA (structured_RNA)
RNA: UAAUGAAAUAAGAUCACUACGUUUUAGUACUCUGGAAACAGAAUCUACUAAAACAAGGCAAAAUGCCGUGUUUAUCUCGUCAACUUGUUGGCGAGAU
binding result (SaCas9 [4]): binds
